Measured values taken from PMC10019796 (Scientific Reports, 2023).

Legend:
[1] = biological target: T1, mtDsbC-SARS-CoV-2 RBD Alpha variant (B.1.1.7) fusion protein (SARS-CoV-2, Alpha (B.1.1.7), RBD N501Y, N501Y, biotin (EZ-Link NHS-PEG4-Biotin)); assay: BLI; biotinylated mtDsbC-RBD (20 µg/mL) immobilised on streptavidin (SA) biosensors, Fabs as analytes at three nanomolar concentrations; Octet RED384, 30 °C, 1000 rpm, 1 × PBS Kinetics Buffer; 1:1 interaction model, global fit; conditions: both partners purified
T1 construct: also called RBD SARS-CoV-2 (alpha variant); not shown: mtDsbC solubility tag, N-terminal, kept

[2] = biological target: T2, mtDsbC-SARS-CoV-2 RBD wild type fusion protein (SARS-CoV-2, wild type (Wuhan-Hu-1), UniProt P0DTC2, biotin (EZ-Link NHS-PEG4-Biotin)); assay: as above; conditions: both partners purified
T2 construct: also called RBD SARS-CoV-2 (wild type); mtDsbC-RBD; not shown: mtDsbC solubility tag, N-terminal, kept

Binder	Kd [1] [nM]	Kd [2] [nM]
REGN10933 (Casirivimab) Fab wild type (Fab, V domains shown, Fab heavy chain of REGN10933; Fab light chain of REGN10933; Polycistronic gene, light chain upstream of heavy chain; also called REGN10933 wild type; REGN10933 Fab) VH: QVQLVESGGGLVKPGGSLRLSCAASGFTFSDYYMSWIRQAPGKGLEWVSYITYSGSTIYYADSVKGRFTISRDNAKSSLYLQMNSLRAEDTAVYYCARDRGTTMVPFDYWGQGTLVTVSS VL: DIQMTQSPSSLSASVGDRVTITCQASQDITNYLNWYQQKPGKAPKLLIYAASNLETGVPSRFSGSGSGTDFTFTISGLQPEDIATYYCQQYDNLPLTFGGGTKVEIK	3.12	2.84
REGN10933 (N93Q) Fab (Fab, V domains shown) VH: QVQLVESGGGLVKPGGSLRLSCAASGFTFSDYYMSWIRQAPGKGLEWVSYITYSGSTIYYADSVKGRFTISRDNAKSSLYLQMNSLRAEDTAVYYCARDRGTTMVPFDYWGQGTLVTVSS VL: DIQMTQSPSSLSASVGDRVTITCQASQDITNYLNWYQQKPGKAPKLLIYAASNLETGVPSRFSGSGSGTDFTFTISGLQPEDIATYYCQQYDQLPLTFGGGTKVEIK	3.42	2.76
REGN10933 (T28E) Fab (Fab, V domains shown) VH: QVQLVESGGGLVKPGGSLRLSCAASGFEFSDYYMSWIRQAPGKGLEWVSYITYSGSTIYYADSVKGRFTISRDNAKSSLYLQMNSLRAEDTAVYYCARDRGTTMVPFDYWGQGTLVTVSS VL: DIQMTQSPSSLSASVGDRVTITCQASQDITNYLNWYQQKPGKAPKLLIYAASNLETGVPSRFSGSGSGTDFTFTISGLQPEDIATYYCQQYDNLPLTFGGGTKVEIK	< 0.001	< 0.001
REGN10933 (M104N) Fab (Fab, V domains shown) VH: QVQLVESGGGLVKPGGSLRLSCAASGFTFSDYYMSWIRQAPGKGLEWVSYITYSGSTIYYADSVKGRFTISRDNAKSSLYLQMNSLRAEDTAVYYCARDRGTTNVPFDYWGQGTLVTVSS VL: DIQMTQSPSSLSASVGDRVTITCQASQDITNYLNWYQQKPGKAPKLLIYAASNLETGVPSRFSGSGSGTDFTFTISGLQPEDIATYYCQQYDNLPLTFGGGTKVEIK	119	143
REGN10933 (A75S) Fab (Fab, V domains shown) VH: QVQLVESGGGLVKPGGSLRLSCAASGFTFSDYYMSWIRQAPGKGLEWVSYITYSGSTIYYADSVKGRFTISRDNSKSSLYLQMNSLRAEDTAVYYCARDRGTTMVPFDYWGQGTLVTVSS VL: DIQMTQSPSSLSASVGDRVTITCQASQDITNYLNWYQQKPGKAPKLLIYAASNLETGVPSRFSGSGSGTDFTFTISGLQPEDIATYYCQQYDNLPLTFGGGTKVEIK	2.75	3.22
REGN10987 (Imdevimab) Fab wild type (Fab, V domains shown, Fab heavy chain of REGN10987; Fab light chain of REGN10987; Polycistronic gene, light chain upstream of heavy chain; also called REGN10987 wild type; REGN10987 Fab) VH: QVQLVESGGGVVQPGRSLRLSCAASGFTFSNYAMYWVRQAPGKGLEWVAVISYDGSNKYYADSVKGRFTISRDNSKNTLYLQMNSLRTEDTAVYYCASGSDYGDYLLVYWGQGTLVTVSS VL: QSALTQPASVSGSPGQSITISCTGTSSDVGGYNYVSWYQQHPGKAPKLMIYDVSKRPSGVSNRFSGSKSGNTASLTISGLQSEDEADYYCNSLTSISTWVFGGGTKLTVL	54.1	43.9
REGN10987 (S95K) Fab (Fab, V domains shown) VH: QVQLVESGGGVVQPGRSLRLSCAASGFTFSNYAMYWVRQAPGKGLEWVAVISYDGSNKYYADSVKGRFTISRDNSKNTLYLQMNSLRTEDTAVYYCASGSDYGDYLLVYWGQGTLVTVSS VL: QSALTQPASVSGSPGQSITISCTGTSSDVGGYNYVSWYQQHPGKAPKLMIYDVSKRPSGVSNRFSGSKSGNTASLTISGLQSEDEADYYCNSLTKISTWVFGGGTKLTVL	22.8	30.5
REGN10987 (N31D) Fab (Fab, V domains shown) VH: QVQLVESGGGVVQPGRSLRLSCAASGFTFSDYAMYWVRQAPGKGLEWVAVISYDGSNKYYADSVKGRFTISRDNSKNTLYLQMNSLRTEDTAVYYCASGSDYGDYLLVYWGQGTLVTVSS VL: QSALTQPASVSGSPGQSITISCTGTSSDVGGYNYVSWYQQHPGKAPKLMIYDVSKRPSGVSNRFSGSKSGNTASLTISGLQSEDEADYYCNSLTSISTWVFGGGTKLTVL	13.7	17.9
